Data published in publication PMC12103653 (2025).

Target: Leukemia inhibitory factor (LIF), un-glycosylated recombinant protein (human, UniProt P15018 23-202)
Test: SPR

Chain of Leukemia inhibitory factor (LIF), un-glycosylated recombinant protein (P15018 23-202): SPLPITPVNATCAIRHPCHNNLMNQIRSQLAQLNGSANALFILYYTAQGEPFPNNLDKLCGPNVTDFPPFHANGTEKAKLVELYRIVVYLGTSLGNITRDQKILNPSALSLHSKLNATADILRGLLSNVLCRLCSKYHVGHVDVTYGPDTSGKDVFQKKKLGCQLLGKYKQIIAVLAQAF

Kd: 6.31 µM
B1: LIF receptor LIFR (receptor)
chain: QKKGAPHDLKCVTNNLQVWNCSWKAPSGTGRGTDYEVCIENRSRSCYQLEKTSIKIPALSHGDYEITINSLHDFGSSTSKFTLNEQNVSLIPDTPEILNLSADFSTSTLYLKWNDRGSVFPHRSNVIWEIKVLRKESMELVKLVTHNTTLNGKDTLHHWSWASDMPLECAIHFVEIRCYIDNLHFSGLEEWSDWSPVKNISWIPDSQTKVFPQDKVILVGSDITFCCVSQEKVLSALIGHTNCPLIHLDGENVAIKIRNISVSASSGTNVVFTTEDNIFGTVIFAGYPPDTPQQLNCETHDLKEIICSWNPGRVTALVGPRATSYTLVESFSGKYVRLKRAEAPTNESYQLLFQMLPNQEIYNFTLNAHNPLGRSQSTILVNITEKVYPHTPTSFKVKDINSTAVKLSWHLPGNFAKINFLCEIEIKKSNSVQEQRNVTIKGVENSSYLVALDKLNPYTLYTFRIRCSTETFWKWSKWSNKKQHLTTEASPSKGPDTWREWSSDGKNLIIYWKPLPINEANGKILSYNVSCSSDEETQSLSEIPDPQHKAEIRLDKNDYIISVVAKNSVGSSPPSKIASMEIPNDDLKIEQVVGMGKGILLTWHYDPNMTCDYVIKWCNSSRSEPCLMDWRKVPSNSTETVIESDEFRPGIRYNFFLYGCRNQGYQLLRSMIGYIEELAPIVAPNFTVEDTSADSILVKWEDIPVEELRGFLRGYLFYFGKGERDTSKMRVLESGRSDIKVKNITDISQKTLRIADLQGKTSYHLVLRAYTDGGVGPEKSMYVVTKENS
